The supplement of paper PMC10126150
± gives the standard deviation of the averaged measurements.

test system: ATP; assay: switch fluorescence ratio, 500 uM ATP over buffer (Cy3 cluster intensity, sum of 5 cycles each) (fold (ratio)); higher = stronger signal-on switching upon ATP binding; sequences stand for … in TCGTCGGCAGCGTCAGATGTGTATAAGAGACAGTTTTTTTTTTTTTTTTTTTTTTTTT…TC; details: aptamer strand: ATP DNA aptamer (quencher-CACCTGGGGGAGTATTGCGGAGGAAGG + anchor), 100 nM annealed; ATP concentration: 500 uM
Method in brief: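 For every switch-domain sequence, the fluorescence ratio is the mean of per-cluster values, each being summed target-cycle Cy3 intensity over summed buffer-cycle Cy3 intensity. Clusters outside 100-1000 RFU were excluded. On a modified Illumina MiSeq flow-cell, the Cy3-labelled switching-strand clusters were annealed to 100 nM quencher-labelled ATP aptamer, imaged in selection buffer and then after 15 min with 500 uM ATP at 22 °C. Five such cycles were run, with NaOH stripping and re-annealing between them.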
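Also: ATP exposure 15 min at 22 °C before imaging.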

Sequence	switch fluorescence ratio
TGATAGTAT	0.96 ± 0.037
TGATATGTGT	0.973 ± 0.053
TGATCATACT	1.035 ± 0.0046
TGATCATATG	0.982 ± 0.068
TGATCATGTT	0.984 ± 0.037
TGATCCAGGG	0.9873 ± 0.0081
TGATCGGGGT	1.02 ± 0.018
TGATCGTG	1.01 ± 0.015
TGATCTGTCG	0.9814 ± 0.0086
TGATGAAAAA	1.01 ± 0.04
TGATGAAAGA	0.996 ± 0.021
TGATGAAATG	1.01 ± 0.049
TGATGAATGG	0.9899 ± 0.0092
TGATGCAGAA	1.036 ± 0.0041
TGATGCATAA	1.04 ± 0.034
TGATGCTAGG	1.01 ± 0.021
TGATGCTTTT	1.01 ± 0.035
TGATGGATAA	1.01 ± 0.027
TGATGGCCGG	1.05 ± 0.04
TGATGGCTGC	1.04 ± 0.013
TGATGGGCAT	1.01 ± 0.018
TGATGGTGCC	0.986 ± 0.014
TGATGGTTCA	0.941 ± 0.077
TGATGTAATG	1 ± 0.02
TGATGTAGAG	0.99 ± 0.029

Sequence	switch fluorescence ratio
TGATGTATCA	1.01 ± 0.08
TGATGTGATG	0.995 ± 0.012
TGATGTTGGT	0.988 ± 0.014
TGATTATAGA	0.983 ± 0.03
TGATTATGGG	0.9781 ± 0.0063
TGATTATGTT	1.04 ± 0.035
TGATTCCGCA	3.07 ± 0.12
TGATTCGGTT	1.037 ± 0.0089
TGATTCTAGC	0.972 ± 0.011
TGATTCTTAT	0.97 ± 0.014
TGATTGGATG	0.9855 ± 0.007
TGATTTAACC	1.05 ± 0.021
TGATTTCCAT	0.9996 ± 0.0064
TGATTTGACC	1.03 ± 0.051
TGATTTGGGG	0.9675 ± 0.0076
TGATTTTGGA	0.974 ± 0.012
TGATTTTGGC	1.01 ± 0.017
TGCAAAAGAG	1.01 ± 0.062
TGCAAGGCGC	1.23 ± 0.24
TGCAAGTTCG	0.9694 ± 0.0095
TGCAATTGGG	1.08 ± 0.022
TGCAATTTGT	1 ± 0.078
TGCACAGTCG	1.01 ± 0.036
TGCACCGAGT	1.04 ± 0.018
TGCAGAAATT	0.98 ± 0.059

Sequence	switch fluorescence ratio
TGCAGAGCAC	1.01 ± 0.028
TGCAGAGGGC	1.03 ± 0.02
TGCAGGCAAG	1.01 ± 0.024
TGCAGGGATC	1.03 ± 0.017
TGCAGGGGCG	1.04 ± 0.14
TGCAGGTAGG	1.04 ± 0.036
TGCAGGTTGG	1.03 ± 0.036
TGCAGTCTGT	0.988 ± 0.034
TGCAGTGGTT	1.01 ± 0.03
TGCAGTTTGA	1.02 ± 0.012
TGCATAAGAA	0.955 ± 0.03
TGCATAATCT	1.04 ± 0.026
TGCATAGGGG	0.999 ± 0.018
TGCATGCAGG	1.02 ± 0.015
TGCATGGGCT	1.05 ± 0.12
TGCATGGGGG	0.999 ± 0.044
TGCATGTCCT	1.029 ± 0.0088
TGCATGTGGC	0.988 ± 0.012
TGCATTAGAG	1.02 ± 0.034
TGCATTTAGT	1.006 ± 0.0086
TGCATTTTAC	1.28 ± 0.082
TGCCAGATTT	0.993 ± 0.041
TGCCCGGGGG	1.24 ± 0.26
TGCCCGTACG	1 ± 0.033
TGCCGACGTA	1.03 ± 0.017

Sequence	switch fluorescence ratio
TGCCGGCGCT	0.989 ± 0.038
TGCCGGGGAC	1.04 ± 0.034
TGCCGGGGGA	1.01 ± 0.018
TGCCGGGGGG	0.99 ± 0.011
TGCCGTTTTC	1.04 ± 0.011
TGCCTAAAGT	0.976 ± 0.016
TGCCTAAATA	1 ± 0.031
TGCCTGCGGA	1.001 ± 0.005
TGCCTTGAGA	1 ± 0.015
TGCGAAGGAG	0.9794 ± 0.0063
TGCGAATGAG	0.993 ± 0.0049
TGCGACAGTT	1.006 ± 0.0029
TGCGACGATG	1.03 ± 0.027
TGCGACTGG	0.9979 ± 0.0067
TGCGATGTAG	0.9889 ± 0.005
TGCGATTAAG	1 ± 0.047
TGCGATTCG	0.9931 ± 0.0076
TGCGATTGGT	1.01 ± 0.012
TGCGCAACTT	1.0306 ± 0.001
TGCGCATAGA	1.02 ± 0.018
TGCGGAGAAT	1.028 ± 0.0026
TGCGGCAATT	1.09 ± 0.012
TGCGGCGCTT	1.97 ± 1.3
TGCGGGAGTG	0.965 ± 0.023
TGCGGGGAAT	0.9707 ± 0.0068

Sequence	switch fluorescence ratio
TGCGGGGGCT	1.002 ± 0.0025
TGCGGGGGGC	0.991 ± 0.012
TGCGGGGTTA	0.986 ± 0.024
TGCGGGTAGG	1.03 ± 0.012
TGCGGTGGGG	0.976 ± 0.013
TGCGGTTAGC	1.004 ± 0.006
TGCGTAAGGC	1.18 ± 0.025
TGCGTAGTGC	1.09 ± 0.036
TGCGTATATG	1.005 ± 0.0085
TGCGTGGCGG	1.02 ± 0.037
TGCGTGTGGG	1.0208 ± 0.001
TGCGTGTTTT	1.03 ± 0.015
TGCGTTAT	1.07 ± 0.036
TGCGTTCGTC	0.993 ± 0.015
TGCTAATCTG	0.958 ± 0.025
TGCTACGGCG	1.02 ± 0.019
TGCTAGCCTC	0.9724 ± 0.004
TGCTAGGGGG	0.989 ± 0.02
TGCTAGGGGT	1.41 ± 0.051
TGCTATACTT	1.46 ± 0.15
TGCTATTATG	0.988 ± 0.048
TGCTCATTCG	1.01 ± 0.024
TGCTCCAAGT	1.03 ± 0.013
TGCTCCTTTT	1 ± 0.034
TGCTCGGATG	0.993 ± 0.03

Sequence	switch fluorescence ratio
TGCTCGGGAC	1.09 ± 0.047
TGCTCTACCT	1.18 ± 0.057
TGCTCTGCGT	1.17 ± 0.012
TGCTGAATCT	0.996 ± 0.046
TGCTGACCGA	1.04 ± 0.035
TGCTGCGGCT	1.01 ± 0.019
TGCTGCTAGC	0.985 ± 0.036
TGCTGGAGGG	0.955 ± 0.011
TGCTGGATGA	1 ± 0.047
TGCTGGCGCG	1 ± 0.033
TGCTGGGCC	1.02 ± 0.083
TGCTGGGGCG	0.9876 ± 0.0022
TGCTGGGGGT	1.03 ± 0.068
TGCTGGGGTG	1.04 ± 0.1
TGCTTAAGAT	0.99 ± 0.023
TGCTTATCTG	0.99 ± 0.032
TGCTTATTTT	1.01 ± 0.065
TGCTTCTGAA	0.9635 ± 0.0092
TGCTTCTTTG	0.979 ± 0.011
TGCTTGGGTA	1.01 ± 0.021
TGCTTTAAAC	0.995 ± 0.032
TGCTTTTTGG	1.01 ± 0.032
TGGAAAAAAG	0.9901 ± 0.0015
TGGAAAAAG	0.989 ± 0.053
TGGAAAACTT	1.11 ± 0.16

Sequence	switch fluorescence ratio
TGGAACAGGG	1.03 ± 0.036
TGGAACTTTT	0.974 ± 0.021
TGGAAGCCGG	0.957 ± 0.037
TGGAAGGAAG	0.9998 ± 0.0073
TGGAAGGGTT	0.994 ± 0.028
TGGAAGTGAG	0.969 ± 0.055
TGGAAGTTAG	0.964 ± 0.029
TGGAATGGAT	1.01 ± 0.043
TGGAATTTTT	0.987 ± 0.03
TGGACCATTT	1.01 ± 0.0021
TGGACCGGGG	1.016 ± 0.0034
TGGACGCGGG	1.03 ± 0.016
TGGACGGGGA	1.03 ± 0.031
TGGACGTTGA	0.994 ± 0.033
TGGACTTATA	1.02 ± 0.012
TGGACTTGGA	0.9869 ± 0.0031
TGGAGATTGG	0.969 ± 0.023
TGGAGCCCCG	0.999 ± 0.015
TGGAGCGCCG	1.01 ± 0.028
TGGAGCTCTG	0.981 ± 0.027
TGGAGGCTTT	1.009 ± 0.0073
TGGAGGGAGG	1.01 ± 0.023
TGGAGGGGAT	1.02 ± 0.075
TGGAGGGGGC	1.01 ± 0.046
TGGAGGGTCG	1.021 ± 0.0023

Sequence	switch fluorescence ratio
TGGAGTACGG	1.008 ± 0.0036
TGGAGTTACT	0.994 ± 0.061
TGGAGTTAGA	0.996 ± 0.035
TGGATAAGGT	1.05 ± 0.13
TGGATAAGTT	1.03 ± 0.025
TGGATAGGGT	0.961 ± 0.037
TGGATATGAT	0.998 ± 0.0028
TGGATATGGT	1.01 ± 0.013
TGGATCATAA	0.973 ± 0.068
TGGATCATGG	0.9753 ± 0.009
TGGATCTTCG	0.9903 ± 0.0077
TGGATGCGGG	1.02 ± 0.032
TGGATGGAGA	1.006 ± 0.008
TGGATGGCC	1.02 ± 0.032
TGGATGGCCC	1.02 ± 0.016
TGGATGGGGG	0.992 ± 0.022
TGGATGTCGT	1.008 ± 0.0094
TGGATGTGAT	1.03 ± 0.049
TGGATGTGGG	1.03 ± 0.031
TGGATGTTTG	1.02 ± 0.018
TGGATTAGAG	0.9672 ± 0.0022
TGGATTAGGT	1.01 ± 0.021
TGGATTATAG	1.02 ± 0.033
TGGATTTGGA	0.999 ± 0.02
TGGATTTGGT	0.988 ± 0.012
